In US20240034776A1 (FUDAN UNIVERSITY, published 2024):

T1: CD3E-human Fc protein (Sino Biological) (UniProt P07766 23-126)
T1 chain: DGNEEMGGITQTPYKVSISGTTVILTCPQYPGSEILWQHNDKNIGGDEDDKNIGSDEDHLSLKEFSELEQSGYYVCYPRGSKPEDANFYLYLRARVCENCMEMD

T2: NRP2 extracellular domain protein with hFc (Sino Biological) (UniProt O60462 21-864)
T2 chain: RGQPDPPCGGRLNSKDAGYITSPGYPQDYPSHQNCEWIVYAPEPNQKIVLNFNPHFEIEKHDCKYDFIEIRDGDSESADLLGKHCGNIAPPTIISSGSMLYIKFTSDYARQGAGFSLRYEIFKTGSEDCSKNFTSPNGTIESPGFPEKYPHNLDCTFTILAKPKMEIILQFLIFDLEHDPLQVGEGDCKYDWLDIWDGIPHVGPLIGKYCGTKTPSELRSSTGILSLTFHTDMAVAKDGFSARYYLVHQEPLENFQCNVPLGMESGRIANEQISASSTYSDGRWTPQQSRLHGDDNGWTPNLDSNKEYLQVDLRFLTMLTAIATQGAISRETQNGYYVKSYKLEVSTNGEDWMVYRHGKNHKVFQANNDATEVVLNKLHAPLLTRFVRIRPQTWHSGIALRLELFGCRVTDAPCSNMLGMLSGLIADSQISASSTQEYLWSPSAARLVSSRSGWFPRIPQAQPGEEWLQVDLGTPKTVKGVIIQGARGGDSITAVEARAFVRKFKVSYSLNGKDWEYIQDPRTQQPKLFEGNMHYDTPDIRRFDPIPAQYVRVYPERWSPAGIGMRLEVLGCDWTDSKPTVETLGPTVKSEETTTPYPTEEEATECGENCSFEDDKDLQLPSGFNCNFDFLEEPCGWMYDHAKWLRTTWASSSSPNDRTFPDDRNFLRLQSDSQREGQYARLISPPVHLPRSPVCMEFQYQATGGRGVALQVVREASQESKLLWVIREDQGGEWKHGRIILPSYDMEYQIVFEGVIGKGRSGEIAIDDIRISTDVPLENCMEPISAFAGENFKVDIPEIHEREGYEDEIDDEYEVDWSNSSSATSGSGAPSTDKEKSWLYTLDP

T3: CD3ε (Met1-Asp126) protein with hFc tag (Sino Biological) (UniProt P07766 22-126)
T3 chain: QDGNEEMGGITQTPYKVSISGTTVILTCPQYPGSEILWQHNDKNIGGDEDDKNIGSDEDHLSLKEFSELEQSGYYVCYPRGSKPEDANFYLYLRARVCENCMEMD

T4: P8 polypeptide with site 10 (R) mutated to alanine (human)
T4 construct: also called P8 R10A
T4 peptide: RLLEMEFEEAKRAAE

T5: P8 polypeptide with site 3 (L) mutated to alanine (human)
T5 construct: also called P8 L3A
T5 peptide: RLAEMEFEERKRAAE

T6: P8 polypeptide with site 7 (F) mutated to alanine (human)
T6 construct: also called P8 F7A
T6 peptide: RLLEMEAEERKRAAE

T7: ITPRIPL1 P8 polypeptide (human)
T7 construct: also called human ITPRIPL1 P8 polypeptide; polypeptide segment P8
T7 peptide: RLLEMEFEERKRAAE

T8: P8 polypeptide with site 4 (E) mutated to alanine (human)
T8 construct: also called P8 E4A
T8 peptide: RLLAMEFEERKRAAE

T9: P8 polypeptide with site 2 (L) mutated to alanine (human)
T9 construct: also called P8 L2A
T9 peptide: RALEMEFEERKRAAE

T10: P8 polypeptide with site 6 (E) mutated to alanine (human)
T10 construct: also called P8 E6A
T10 peptide: RLLEMAFEERKRAAE

T11: P8 polypeptide with site 15 (E) mutated to alanine (human)
T11 construct: also called P8 E15A
T11 peptide: RLLEMEFEERKRAAA

T12: P8 polypeptide with site 1 (R) mutated to alanine (human)
T12 construct: also called P8 R1A
T12 peptide: ALLEMEFEERKRAAE

T13: P8 polypeptide with site 5 (M) mutated to alanine (human)
T13 construct: also called P8 M5A
T13 peptide: RLLEAEFEERKRAAE

T14: P8 polypeptide with site 11 (K) mutated to alanine (human)
T14 construct: also called P8 K11A
T14 peptide: RLLEMEFEERARAAE

T15: P8 polypeptide with site 9 (E) mutated to alanine (human)
T15 construct: also called P8 E9A
T15 peptide: RLLEMEFEARKRAAE

T16: P8 polypeptide with site 12 (R) mutated to alanine (human)
T16 construct: also called P8 R12A
T16 peptide: RLLEMEFEERKAAAE

T17: P8 polypeptide with site 8 (E) mutated to alanine (human)
T17 construct: also called P8 E8A
T17 peptide: RLLEMEFAERKRAAE


Legend:
[1] = target: T18, HA-tagged CD3ε (expressed from pcDNA3.1 in transfected HCT116 cells) (human, UniProt P07766 23-207); test: flow cytometry on HCT116-CD3ε cells, 1-4 µg/ml protein, anti-6x-His-FITC
T18 construct: whole, on cells; also called CD3ε-HA; CD3E-HA; not shown: HA tag

[2] = target: T1, CD3E-human Fc protein (Sino Biological); test: BLI (Octet)
[3] = target: T2, NRP2 extracellular domain protein with …; test: ELISA
[4] = target: T3, CD3ε (Met1-Asp126) protein with hFc tag …; test: ELISA
[5] = target: T4, P8 polypeptide with site 10 (R) mutated …; test: ELISA, peptide coated at 1 µg/ml
[6] = target: T5, P8 polypeptide with site 3 (L) mutated …; test: ELISA, peptide coated at 1 µg/ml
[7] = target: T6, P8 polypeptide with site 7 (F) mutated …; test: ELISA, peptide coated at 1 µg/ml
ITPRIPL1 P8 polypeptide = target: T7, ITPRIPL1 P8 polypeptide; test: ELISA, peptides coated at 1 µg/ml, antibody at 1 µg/ml
[8] = target: T8, P8 polypeptide with site 4 (E) mutated …; test: ELISA, peptide coated at 1 µg/ml, antibody at 1 µg/ml
[9] = target: T9, P8 polypeptide with site 2 (L) mutated …; test: as above
[10] = target: T10, P8 polypeptide with site 6 (E) mutated …; test: as above
[11] = target: T11, P8 polypeptide with site 15 (E) mutated …; test: as above
[12] = target: T12, P8 polypeptide with site 1 (R) mutated …; test: as above
[13] = target: T13, P8 polypeptide with site 5 (M) mutated …; test: as above
[14] = target: T14, P8 polypeptide with site 11 (K) mutated …; test: as above
[15] = target: T15, P8 polypeptide with site 9 (E) mutated …; test: as above
[16] = target: T16, P8 polypeptide with site 12 (R) mutated …; test: as above
[17] = target: T17, P8 polypeptide with site 8 (E) mutated …; test: as above

| binding result [1] | Kd [2] | EC50 [3] | EC50 [4] | binding result [5] | binding result [6] | binding result [7] | binding result (ITPRIPL1 P8 polypeptide) | binding result [8] | binding result [9] | binding result [10] | binding result [11] | binding result [12] | binding result [13] | binding result [14] | binding result [15] | binding result [16] | binding result [17] | Binder |
| --- | --- | --- | --- | --- | --- | --- | --- | --- | --- | --- | --- | --- | --- | --- | --- | --- | --- | --- |
| binds | 318 nM | 0.418 µg/mL | 0.255 µg/mL |  |  |  |  |  |  |  |  |  |  |  |  |  |  | ITPRIPL1-RBD recombinant protein (human ITPRIPL1 extracellular domain, 25-103 amino acids, C-terminal 6x-His and Myc tags, Cusabio, from yeast) (ligand, also called IT1-RBD protein; ITPRIPL1-RBD-6x-His recombinant protein; not shown: 6x-His and Myc tags at the C terminus) HPLMVSDRMDLDTLARSRQLEKRMSEEMRLLEMEFEERKRAAEQRQKAENFWTGDTSSDQLVLGKKDMGWPFQADGQEG |
|  |  |  |  | no binding (tested: 1 µg/ml) | no binding (tested: 1 µg/ml) | no binding (tested: 1 µg/ml) | binds | binds | binds | binds | binds | binds | binds | binds | binds | binds | binds | monoclonal antibody 13B7A6H3 (antibody, mouse IgG1, kappa, V domains shown, Mouse hybridoma monoclonal; also called 13B7A6H3 monoclonal antibody) VH: QVQLQQSGPELVKPGASVRMSCKTSGYTFTDYVISWVKQRPGQGLEWIGEIFPRTGSTYYNENFKATATLTADKSSNTAYMQLSSLTSEDSAAYFCAFITSVDWAMEYWGQGTSVTVSS VL: DVVMTQTPLSLPVSLGDQASISCRSSESLVNSKGNTHLHWYLQKPGQSPKLLIYKVSNRFSGVPDRFSGSGSGTDFTLKISRVEAEDLGVYFCSQSTHAPYTFGGGTKLEIKR |
